Molecular target: the molecule itself
Test: cryo-EM structure

B1: STRN3 (striatin 3), recombinant (natural protein, human, UniProt Q13033-2 1-713, looked up)
chain: MDELAGGGGGGPGMAAPPRQQQGPGGNLGLSPGGNGAAGGGGPPASEGAGPAAGPELSRPQQYTIPGILHYIQHEWARFEMERAHWEVERAELQARIAFLQGERKGQENLKKDLVRRIKMLEYALKQERAKYHKLKYGTELNQGDLKMPTFESEETKDTEAPTAPQNSQLTWKQGRQLLRQYLQEVGYTDTILDVRSQRVRSLLGLSNSEPNGSVETKNLEQILNGGESPKQKGQEIKRSSGDVLETFNFLENADDSDEDEENDMIEGIPEGKDKHRMNKHKIGNEGLAADLTDDPDTEEALKEFDFLVTAEDGEGAGEARSSGDGTEWAEPITFPSGGGKSFIMGSDDVLLSVLGLGDLADLTVTNDADYSYDLPANKDAFRKTWNPKYTLRSHFDGVRALAFHPVEPVLVTASEDHTLKLWNLQKTVPAKKSASLDVEPIYTFRAHIGPVLSLAISSNGEQCFSGGIDATIQWWNMPSPSVDPYDTYEPNVLAGTLVGHTDAVWGLAYSGIKNQLLSCSADGTVRLWNPQEKLPCICTYNGDKKHGIPTSVDFIGCDPAHMVTSFNTGSAVIYDLETSQSLVILSSQVDSGLQSNNHINRVVSHPTLPVTITAHEDRHIKFFDNKTGKMIHSMVAHLDAVTSLAVDPNGIYLMSGSHDCSIRLWNLDSKTCVQEITAHRKKLDESIYDVAFHSSKAYIASAGADALAKVFV
  stoichiometry N: 4

Reference: PMC8315899 (Nature structural & molecular biology, 2021)
